The values below come from paper PMC5115829, “Digitor/dASCIZ Has Multiple Roles in Drosophila Development” (PLoS ONE, 2016).

The target of this experiment is T1, His-tagged COOH-terminal fragment of Digitor containing the six TQT motifs (amino acids 256 to 388) (Drosophila, UniProt Q9VZU1 256-388).
T1 construct: Digitor/dASCIZ (CG14962), Drosophila, residues 256-388, holds the six TQT motifs; full length is aa 1-388; Purification is not described; 10 ug amounts are stated; also called Digitor-His; His-Digitor; source: expressed in BL21 cells (pET28a)
T1 sequence (looked up): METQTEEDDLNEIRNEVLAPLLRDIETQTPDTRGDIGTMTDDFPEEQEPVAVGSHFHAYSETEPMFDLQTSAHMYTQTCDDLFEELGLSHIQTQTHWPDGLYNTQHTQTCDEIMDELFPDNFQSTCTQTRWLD
The experiment is described as follows: pull-down; MBP-Cut up or MBP alone bound to amylose resin, incubated with His-tagged Digitor in 1X PBS pH 7.4, 4 hr, 4°C; 5 washes; immunoblot with anti-His antibody. To be noted: both partners purified. Background: In western blotting, separated proteins are transferred to a membrane and probed.

B1: full length Cut up MBP fusion protein (amino acids 1-89) (natural protein, Drosophila, UniProt Q24117 1-89, looked up)
chain: MSDRKAVIKNADMSEEMQQDAVDCATQALEKYNIEKDIAAYIKKEFDKKYNPTWHCIVGRNFGSYVTHETRHFIYFYLGQVAILLFKSG
notes: Cut up, the Dynein light chain (DYNLL1 homolog) of Drosophila, full-length cDNA encoding amino acids 1-89; Purification is not described; 10 ug amounts are stated; also called MBP-Cut-up; MBP-Cut up; source: expressed in BL21 cells (pMAL-C2X)
Regarding B1, the binding result was “binds”.
